# According to the supplement of paper PMC12042874:
# ± gives the uncertainty stated by the source.
# Assay: amyloid nucleation score (Sup35N fusion, yeast selection) (log enrichment); library NNK3; higher = more nucleation; inactive = no reads after selection
# Summary of the method: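 DiMSum was used to calculate nucleation scores as log enrichment of output over input reads, centred on the mode score of non-aggregating sequences. Sequences with fewer than 100 input reads were not scored. Input and output came from Illumina sequencing of plasmid inserts in psi-negative yeast expressing peptides of 20 random codons fused to Sup35N, induced 24 hours with 100 μM copper sulfate and then grown 7 days at 30°C on medium lacking adenine and uracil.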
row,Substance,amyloid nucleation score
1,SNDCRVTVTVFSIGRDSYVL,2.28 ± 0.089
2,SRPAYSRRFMLTGDITVIKL,1.66 ± 0.071
3,IKCVCFLCPNQ,1.02 ± 0.19
4,CIIFTRMATTGG,inactive
5,SIVHGMA,inactive
6,WQTDEDRRCKTDFISLF,inactive
7,RMFICSQYWFVWVKLPPCGL,inactive
8,MIFSRAISDGSFLTVFV,-0.32 ± 0.8
9,HDCGYQITYGDNRIVYMCFV,inactive
10,PTSVY,0.481 ± 0.32
11,KLKPMPNWSRLSRDWVLCCS,inactive
12,PNEMGSSVMENNWTIHNFGM,inactive
13,NRSFSNGCVIRLELFNNVYA,inactive
14,SKPYYYMVYIESEVVVYLFG,inactive
15,MSYINRAPFAMSGLFCAWFD,inactive
16,HARFTDQKTTPIWCTSVFKK,inactive
17,TCWFGIQLSGL,0.651 ± 0.2
18,SLIFQDGGDNVNDLKVCVDY,inactive
19,VDNHPDFFLNLESVLINVDH,inactive
20,AWLMRLMSYLGSSGWE,inactive
21,SMPRAEHSDVSCYAHYFSFR,inactive
22,LNTLGKNNIKRSILRRSLYY,inactive
23,SMGVFAKRRKGRWNTYSIKA,inactive
24,HSLTATINTGKLYKSVSKHG,inactive

row,Substance,amyloid nucleation score
1,DSSSLRSNVLVTVCVLVSSI,0.375 ± 0.22
2,IRTGDLVFVWYIRVTNTIPC,inactive
3,DKWFMSVPIISTRICGGCLG,inactive
4,GKDVSVGEVFKPLVSVRRVN,inactive
5,RNNMKTCNVMCIFSNECHCR,2.85 ± 0.055
6,LYPFSGESQA,inactive
7,LWKRCRNNEAFVLMVGRRQA,inactive
8,NVTTNRVTKLLAN,inactive
9,SCLHYVTVY,inactive
10,DRYMRLCVFGYKYVSYG,inactive
11,MILCCNRRLFGRRSLANLCW,inactive
12,FGSPWPRLQMTQLLIVAMTL,inactive
13,LPWTLGVFGLMY,inactive
14,FKFKERDHEWYVWFKLKHKS,inactive
15,MMGSVQLVHSIEYSCMHGTS,inactive
16,WNRAVCIMSNIWIMDLPVLK,inactive
17,IYALDNHGTCGRGHAFYNMV,inactive
18,TLNFMWASEVLVSMSVSNQL,inactive
19,RLQNPTCAAPWCCIGKGVIR,0.538 ± 0.39
20,FKSASGRL,inactive
21,VFIKLPVRSS,-0.192 ± 0.96
22,SSAGYVVYIVMSRS,2.65 ± 0.065
23,AMCCF,inactive
24,DLKWNVRHGCISKTARGFVT,inactive

row,Substance,amyloid nucleation score
1,LFVNNVVFHFIFLCPVHRTV,2.75 ± 0.06
2,VDVLFC,inactive
3,YRRSGTYMSDSGVLVVKVCV,inactive
4,CSAYNLSYHGGRDVRCRNTF,inactive
5,LRQGWILVA,inactive
6,ISLDLG,inactive
7,SFYNCTEVETHGRRICIFLY,inactive
8,GWHNGDKSYIFVYIRFGPMG,0.955 ± 0.16
9,NDIMKTCFFNTYAYHLSVVM,inactive
10,TNVSKLLIMSFVCSIHRSHG,0.816 ± 0.18
11,RGRRSCRARRYTTGAFHELL,inactive
12,TYLALGLSSSMLRESLKWEV,inactive
13,TCMPRFSALYICSGTLDKKL,inactive
14,PTFVPARSRYSLNVFNPLDE,inactive
15,VKVES,-0.195 ± 1.1
16,FVEVRVD,inactive
17,PSQHMRSARRQVGKSTSNEG,inactive
18,ISSPDSTTIRNDVSD,inactive
19,NTRRNYNGRYLVLCIRLQLR,1.81 ± 0.072
20,KVSMPISHTQSLPVVTARCH,inactive
21,MGVYAINVRYSAERVMLVAP,inactive
22,SMDVKHRR,inactive
23,GMTDNVPLGVKVKREMCQFA,inactive
24,TDVRFDRLTCCNSLIKITRW,1.14 ± 0.082

row,Substance,amyloid nucleation score
1,VLSEESNYAKM,inactive
2,PDEAVGV,-1.19 ± 2.5
3,LFSTMFDTIENYNIGCTCGF,2.01 ± 0.053
4,IFVVP,inactive
5,RLDPLVDFANDLMTSYSR,inactive
6,AREYDWQDYILVSVMYTLVW,inactive
7,LFRLYRLL,inactive
8,VGIIVFLIAFHYYKRSMYWD,inactive
9,SSNVPFVWCIPLMIAGIVGH,-0.348 ± 0.75
10,PNHEFYRARFRLCNAICTTV,inactive
11,RYSRWLGT,inactive
12,ITSCRWVALKYLWSVFSLLI,inactive
13,GAYSGLCSILGSFLGLSAVK,inactive
14,VVINHYMNHIAEHTDSLRGG,1.57 ± 0.075
15,SGKHPSYNREPKGSVSVLGA,inactive
16,SQKRPMCFSCWTHMVFHSWF,-0.257 ± 0.46
17,FHVYCVWVRTLSCWRENNVK,1.5 ± 0.14
18,GSRYRWVTATTIMSCGYEQE,inactive
19,SFKMSVVAGVRTLGIFVWVF,inactive
20,SYLFYMHSSVLGSLMGQRDH,inactive
21,KGVKYMDGH,0.303 ± 0.2
22,SSPRGCKSELPSGLGTYCRV,inactive
23,YVGFRAQHTNEDDGTTVCRP,inactive
24,PCSGLKCSKGCWCNKICKYK,1.37 ± 0.13

row,Substance,amyloid nucleation score
1,YLDRTSSMVTLVVSRGIF,inactive
2,NYTSCNFNVYNSMFFRRYTM,3.2 ± 0.053
3,GICIGTDKTFYCLGMSFF,inactive
4,SFSDYEDMAQHLAPEAYNKC,inactive
5,LIQDFTSSGRI,inactive
6,FGFIILDLTR,inactive
7,MCFNYCGVWASYLNRSVSFI,inactive
8,IYMRRESGVLGEQ,inactive
9,LWKLSSNSYWFVSCNGLKYS,inactive
10,IKLARSAYQLSSVNMRVKVI,inactive
11,FMYNLVVSGSVHSKVDRYSC,0.629 ± 0.16
12,VNYRN,inactive
13,KIYDVFSRFKYRMQSVYKQA,inactive
14,MSTLEMHYGPSFSCLYNMQD,1.89 ± 0.065
15,FNKDINRPYKCKAH,inactive
16,EGRCMRKCARVNGSWAMKWM,inactive
17,SDYLFSQRGFVGSASCVLVM,inactive
18,YMACGHVAGPVH,inactive
19,VYDLVT,inactive
20,FAGCWTVTSMGFCNRSGMKL,inactive
21,FRNSLQ,-0.725 ± 1.1
22,LDRCDHSIVCR,inactive
